Usually EC50 stands for the concentration giving half of the maximal effect. A high value points to a less potent agent. What is called Kd is the constant that tells how readily two partners part at equilibrium. Low values mean a tighter complex, high ones a looser complex. What is called koff is the rate constant with which the complex falls apart. Read a low koff as a long-lived complex. A word on the kon: it is a measure of how fast the partners come together. High values mean fast association, low ones slow association.

The target of assay [1] is T1, FLRT3-His monomeric fusion protein (Homo sapiens (Human), UniProt Q9NZU0 29-528).
T1 construct: also called FLRT3 monomer; not shown: His tag
T1 sequence: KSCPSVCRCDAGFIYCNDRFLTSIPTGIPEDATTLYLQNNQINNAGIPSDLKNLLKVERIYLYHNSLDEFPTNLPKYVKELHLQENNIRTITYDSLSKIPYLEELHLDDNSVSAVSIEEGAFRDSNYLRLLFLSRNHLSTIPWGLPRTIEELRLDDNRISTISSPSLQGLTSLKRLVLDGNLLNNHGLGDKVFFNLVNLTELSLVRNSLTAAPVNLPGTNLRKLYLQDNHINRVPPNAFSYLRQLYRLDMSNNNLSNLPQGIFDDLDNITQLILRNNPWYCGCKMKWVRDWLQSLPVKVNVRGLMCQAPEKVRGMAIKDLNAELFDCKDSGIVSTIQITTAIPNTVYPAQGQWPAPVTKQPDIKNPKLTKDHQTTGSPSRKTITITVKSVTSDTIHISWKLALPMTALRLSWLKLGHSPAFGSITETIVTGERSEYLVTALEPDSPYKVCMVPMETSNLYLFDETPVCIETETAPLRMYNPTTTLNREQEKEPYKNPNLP
The experiment in a line: Octet, FLRT3 antibodies and FLRT3 monomer.

Assay [2] has as its target T2, human FLRT3 on cells (human, UniProt Q9NZU0 29-649).
T2 construct: also called hFLRT3
T2 sequence: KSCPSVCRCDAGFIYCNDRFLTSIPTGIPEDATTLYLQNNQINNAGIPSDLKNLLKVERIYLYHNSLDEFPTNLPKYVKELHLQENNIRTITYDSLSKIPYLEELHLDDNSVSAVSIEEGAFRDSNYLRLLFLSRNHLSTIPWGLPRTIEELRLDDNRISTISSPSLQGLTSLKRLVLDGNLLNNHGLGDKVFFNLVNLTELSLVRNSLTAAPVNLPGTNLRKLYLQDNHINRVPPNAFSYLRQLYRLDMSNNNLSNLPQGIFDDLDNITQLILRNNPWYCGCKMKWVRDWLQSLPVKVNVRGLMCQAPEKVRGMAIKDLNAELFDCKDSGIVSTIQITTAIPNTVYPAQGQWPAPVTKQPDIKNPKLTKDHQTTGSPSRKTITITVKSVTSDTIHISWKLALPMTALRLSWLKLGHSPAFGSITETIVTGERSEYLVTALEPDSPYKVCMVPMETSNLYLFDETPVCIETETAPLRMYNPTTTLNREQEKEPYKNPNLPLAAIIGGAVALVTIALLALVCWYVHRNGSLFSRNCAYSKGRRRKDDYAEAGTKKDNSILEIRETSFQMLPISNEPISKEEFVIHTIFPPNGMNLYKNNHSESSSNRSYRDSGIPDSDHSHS
The experiment in a line: flow cytometry (AF647 MFI), FLRT3-293T-OKT3 cells, antibody titration. On the technique in general: Flow cytometry measures light scatter and fluorescence of single cells or particles in a stream.

Assay [3] addresses T3, FLRT3 (antigen of the binning assay of Table 2) (Homo sapiens (Human), UniProt Q9NZU0 29-528, limits assumed).
T3 construct: the whole entry for FLRT3 is named
T3 sequence: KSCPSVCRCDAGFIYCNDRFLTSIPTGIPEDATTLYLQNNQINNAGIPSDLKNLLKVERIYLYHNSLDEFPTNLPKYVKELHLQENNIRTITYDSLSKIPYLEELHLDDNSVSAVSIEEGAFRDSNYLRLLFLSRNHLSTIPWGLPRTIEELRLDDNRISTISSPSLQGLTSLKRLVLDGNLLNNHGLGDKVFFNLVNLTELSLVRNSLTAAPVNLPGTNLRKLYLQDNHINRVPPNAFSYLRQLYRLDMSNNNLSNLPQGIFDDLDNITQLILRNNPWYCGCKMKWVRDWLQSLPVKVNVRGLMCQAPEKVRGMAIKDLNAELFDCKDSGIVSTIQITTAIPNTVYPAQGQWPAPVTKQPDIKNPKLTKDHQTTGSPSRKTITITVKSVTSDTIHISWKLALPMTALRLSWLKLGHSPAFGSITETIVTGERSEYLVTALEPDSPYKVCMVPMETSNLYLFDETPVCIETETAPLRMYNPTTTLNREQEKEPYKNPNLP
Briefly: antibody binning matrix (Table 2); competitor: 14B7.

The target in assay [4] is T2, human FLRT3 on cells. The experiment in a line: flow cytometry on 293T cells transfected with human FLRT3, normalised MFI, non-linear fit; Exp 1. From the text: (§1) MFI values of each group were normalized within that group- i.e. largest value 100% and smallest value 0%.
In assay [5] the target is T3, FLRT3 (antigen of the binning assay of …). Briefly: antibody binning matrix (Table 2); competitor: 15G11.
Assay [6] has as its target T2, human FLRT3 on cells. Briefly: flow cytometry on A549 cells (endogenous hFLRT3), normalised MFI, non-linear fit. The procedure:
(§2) Increasing concentrations of FLRT3 antibodies bound to A549 cells that express endogenous hFLRT3 (FIG. 19). Binding curves for the top three antibodies were performed (FIG. 20A). MFI values of each group were normalized within that group- i.e. largest value 100% and smallest value 0% (FIG. 20A). EC50 values were calculated based on non-linear regression fit (FIG. 20B).

Assay [7] deals with T3, FLRT3 (antigen of the binning assay of …). The experiment in a line: antibody binning matrix (Table 2); competitor: 1H5.
For assay [8] the target is unchanged. Briefly: antibody binning matrix (Table 2); competitor: 2F7.
For assay [9] the target is unchanged. Briefly: antibody binning matrix (Table 2); competitor: 14D3.
Assay [10] concerns the target T2, human FLRT3 on cells. The experiment in a line: flow cytometry on 293T cells transfected with human FLRT3, normalised MFI, non-linear fit; Exp 2.
Description: as §1

Assay [11] concerns the target T1, FLRT3-His monomeric fusion protein. The experiment in a line: kinetic affinity measurement with FLRT3-His monomer (Table 1).
The target in assay [12] is T3, FLRT3 (antigen of the binning assay of …). The experiment in a line: antibody binning matrix (Table 2); competitor: 5C2.
Assay [13] shares this target. The experiment in a line: antibody binning matrix (Table 2); row '1X Kinetic' (no first antibody), column antibody taken as binder.
For assay [14], the target named is T4, FLRT3-Fc (Homo sapiens (Human), UniProt Q9NZU0 29-528, biotin label in Example 8 (site not stated)).
T4 construct: also called FLRT3-Fc biotin; soluble FLRT3; not shown: Fc part
T4 sequence: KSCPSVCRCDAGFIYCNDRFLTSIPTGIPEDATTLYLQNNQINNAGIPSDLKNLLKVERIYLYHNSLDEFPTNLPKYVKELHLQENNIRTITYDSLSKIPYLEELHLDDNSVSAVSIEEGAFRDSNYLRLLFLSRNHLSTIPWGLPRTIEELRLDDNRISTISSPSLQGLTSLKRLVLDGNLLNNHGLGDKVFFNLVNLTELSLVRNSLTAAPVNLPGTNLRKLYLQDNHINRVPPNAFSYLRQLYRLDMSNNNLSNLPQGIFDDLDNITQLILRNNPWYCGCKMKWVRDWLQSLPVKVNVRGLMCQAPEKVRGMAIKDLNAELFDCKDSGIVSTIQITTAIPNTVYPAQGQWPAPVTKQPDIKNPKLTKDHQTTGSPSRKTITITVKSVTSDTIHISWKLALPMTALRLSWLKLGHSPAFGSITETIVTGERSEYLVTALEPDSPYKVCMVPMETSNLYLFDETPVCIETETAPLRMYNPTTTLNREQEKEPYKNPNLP
The experiment in a line: competition ELISA: FLRT3-Fc biotin binding to coated Unc5B-Fc with titrated antibody. Here is the method: The FLRT3 antibodies were tested for their ability to block FLRT3-Unc5B interaction in ELISA assays (FIG. 14A). The binding of FLRT3-Fc biotin to Unc5B-Fc was confirmed in the absence of blocking mAbs (FIG. 14B).
(In general: In an ELISA, binding on a coated surface is turned into a signal by an enzyme label.)

Assay [15] concerns the target T2, human FLRT3 on cells. Briefly: flow cytometry on A549 cells (endogenous hFLRT3), normalised MFI, non-linear fit. The procedure:
as §2
This is another data set of the same source.

The target in assay [16] is T2, human FLRT3 on cells. Briefly: flow cytometry on 293T cells transfected with human FLRT3, normalised MFI, non-linear fit.
Description: as §1

B1: 13B2 (antibody, V domains shown)
VH: EIQLQQSGTELVKPGASVKISCKASGYSFTGYNMNWMKQSHGMSLEWIGNINPYYGSTSYNQKFKGKATLTIDKSSSTAYMQLNSLTSEDSAVYYCARDRKNWEYFFDYWGQGTTLTVSS
VL: ETTVTQSPASLSMAIGEKVTIRCITSTDIDDDMNWYQQKPGKPPKLLISEGNTLRPGVPSRFSSSGYGTDFVFTIENMLSEDVADYYCLQSDNLPYTFGGGTKLEIK
notes: Variable domains only
As to B1, the binding result in [1] is “no binding”; in [2], “no binding (tested: about 300 nM)”.

B2: 14B7 (antibody, V domains shown)
VH: QVQLQQSGPELVKPGASVNISCKASGYAFGNSWMNWVKQRPGKGLEWIGWIYPGDGNANYNGKFKGKATLTADKSSSTAYMQLSSLTSEDSAVYFCARALYDYDGWFAYWGQGTLVTVSA
VL: DIQMNQSPSSLSASLGDTITIACRASQNIDIWLSWYQQKPGSIPKLLIYKASNLHTGVPSRFSGSGSGTDFTLTISSLQPEDIATYYCLQGQSFPFTFGSGTKLEIK
notes: Variable domains only; also called FLRT3 mAb 14B7; antibody 14B7
As for B2, the “binning response (no name or unit printed)” value in assay [3] came to 0.0294; in assay [5], 1.07; in assay [7] it was 0.671; in assay [8] it was 0.771; in [9], 0.621; in [12], 0.0014. Besides, in assay [13], the “binning response (no name or unit printed)” value worked out at 1.73. Further, the concentration for a half-maximal effect (EC50) in assay [4] is 1.41 nM; in assay [6] it was 0.29 nM; in [10], 1.35 nM; in assay [15], below 1 nM; in assay [16] it was below 1.5 nM. In assay [11], this molecule came in with a Kd of 0.349 nM. Also, the koff in assay [11] was determined as 0.000138 s⁻¹. Besides, the association rate constant (kon) in assay [11] was 436000 M⁻¹ s⁻¹. The “IC50 (read off the curve)” value in assay [14] is around 2 µg/mL.

(Values after US20230357384A1 (NEXTCURE, published 2023).)
